The results in this text go back to US20190100563A1 (UNIVERSITY COURT OF THE UNIVERSITY OF EDINBURGH, published 2019).

B1: Human complement factor H purified from plasma (other)
chain: EDCNELPPRRNTEILTGSWSDQTYPEGTQAIYKCRPGYRSLGNVIMVCRKGEWVALNPLRKCQKRPCGHPGDTPFGTFTLTGGNVFEYGVKAVYTCNEGYQLLGEINYRECDTDGWTNDIPICEVVKCLPVTAPENGKIVSSAMEPDREYHFGQAVRFVCNSGYKIEGDEEMHCSDDGFWSKEKPKCVEISCKSPDVINGSPISQKIIYKENERFQYKCNMGYEYSERGDAVCTESGWRPLPSCEEKSCDNPYIPNGDYSPLRIKHRTGDEITYQCRNGFYPATRGNTAKCTSTGWIPAPRCTLKPCDYPDIKHGGLYHENMRRPYFPVAVGKYYSYYCDEHFETPSGSYWDHIHCTQDGWSPAVPCLRKCYFPYLENGYNQNYGRKFVQGKSIDVACHPGYALPKAQTTVTCMENGWSPTPRCIRVKTCSKSSIDIENGFISESQYTYALKEKAKYQCKLGYVTADGETSGSITCGKDGWSAQPTCIKSCDIPVFMNARTKNDFTWFKLNDTLDYECHDGYESNTGSTTGSIVCGYNGWSDLPICYERECELPKIDVHLVPDRKKDQYKVGEVLKFSCKPGFTIVGPNSVQCYHFGLSPDLPICKEQVQSCGPPPELLNGNVKEKTKEEYGHSEVVEYYCNPRFLMKGPNKIQCVDGEWTTLPVCIVEESTCGDIPELEHGWAQLSSPPYYYGDSVEFNCSESFTMIGHRSITCIHGVWTQLPQCVAIDKLKKCKSSNLIILEEHLKNKKEFDHNSNIRYRCRGKEGWIHTVCINGRWDPEVNCSMAQIQLCPPPPQIPNSHNMTTTLNYRDGEKVSVLCQENYLIQEGEEITCKDGRWQSIPLCVEKIPCSQPPQIEHGTINSSRSSQESYAHGTKLSYTCEGGFRISEENETTCYMGKWSSPPQCEGLPCKSPPEISHGVVAHMSDSYQYGEEVTYKCFEGFGIDGPAIAKCLGEKWSHPPSCIKTDCLSLPSFENAIPMGEKKDVYKAGEQVTYTCATYYKMDGASNVTCINSRWTGRPTCRDTSCVNPPTVQNAYIVSRQMSKYPSGERVRYQCRSPYEMFGDEEVMCLNGNWTEPPQCKDSTGKCGPPPPIDNGDITSFPLSVYAPASSVEYQCQNLYQLEGNKRITCRNGQWSEPPKCLHPCVISREIMENYNIALRWTAKQKLYSRTGESVEFVCKRGYRLSSRSHTLRTTCWDGKLEYPTCAKR
notes: also called Plasma CFH; plasma-purified CFH

Assay [1] concerns the target T1, Human C3b (plasma-purified) (human, UniProt P01024 23-667; P01024 749-1663). Put plainly: SPR (Biacore), coupled C3b, TIGR4 experiment. In general terms: In SPR one partner is held on a chip, and binding of the other changes the refractive index at the surface.
Assay [2] deals with T1, Human C3b (plasma-purified). Briefly: SPR, amine-coupled C3b on C1 chip, equilibrium 1:1 fit.
Description: The sensor chip was regenerated by 2×30 s injections of 1 M NaCl. Data were analysed using the Biacore evaluation software and equilibrium affinity parameters were calculated using a 1:1 binding affinity model.
Commercially sources plasma-purified human C3b, C3c and C3d were immobilized using standard amine coupling to different channels of the same C1 SPR chip (Biacore).
Assay [3] shares this target. Put plainly: SPR, immobilised C3b.
The target of assay [4] is T2, Human C3d (plasma-purified) (human, UniProt P01024 1002-1303).
T2 construct: domain: TED; also called TED of C3b
T2 sequence (P01024 1002-1303 limits assumed): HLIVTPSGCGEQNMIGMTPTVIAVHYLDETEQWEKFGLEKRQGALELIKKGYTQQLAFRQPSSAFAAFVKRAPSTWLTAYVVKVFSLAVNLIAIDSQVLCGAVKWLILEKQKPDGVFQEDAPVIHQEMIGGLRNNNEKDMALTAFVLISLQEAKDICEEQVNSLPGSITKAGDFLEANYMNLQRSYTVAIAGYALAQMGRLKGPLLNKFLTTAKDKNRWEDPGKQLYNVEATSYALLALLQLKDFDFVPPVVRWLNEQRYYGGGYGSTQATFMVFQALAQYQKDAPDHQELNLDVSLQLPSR
Briefly: SPR, immobilised C3d.

Assay [5] deals with T1, Human C3b (plasma-purified). Briefly: SPR, amine-coupled C3b on C1 chip.
The target in assay [6] is B1. Briefly: SPR, His-SUMO-PspCN-Cys as ligand, plasma-purified CFH as analyte, kinetic analysis.
The target in assay [7] is B1. Briefly: SPR, TIGR4 fragment on NTA chip, CFH as analyte.
The target of assay [8] is B1. Put plainly: SPR, His-SUMO-Cys-PspCN as ligand, plasma-purified CFH as analyte, kinetic analysis.

T1 sequence (P01024 23-667 limits assumed, chain 1 of 2): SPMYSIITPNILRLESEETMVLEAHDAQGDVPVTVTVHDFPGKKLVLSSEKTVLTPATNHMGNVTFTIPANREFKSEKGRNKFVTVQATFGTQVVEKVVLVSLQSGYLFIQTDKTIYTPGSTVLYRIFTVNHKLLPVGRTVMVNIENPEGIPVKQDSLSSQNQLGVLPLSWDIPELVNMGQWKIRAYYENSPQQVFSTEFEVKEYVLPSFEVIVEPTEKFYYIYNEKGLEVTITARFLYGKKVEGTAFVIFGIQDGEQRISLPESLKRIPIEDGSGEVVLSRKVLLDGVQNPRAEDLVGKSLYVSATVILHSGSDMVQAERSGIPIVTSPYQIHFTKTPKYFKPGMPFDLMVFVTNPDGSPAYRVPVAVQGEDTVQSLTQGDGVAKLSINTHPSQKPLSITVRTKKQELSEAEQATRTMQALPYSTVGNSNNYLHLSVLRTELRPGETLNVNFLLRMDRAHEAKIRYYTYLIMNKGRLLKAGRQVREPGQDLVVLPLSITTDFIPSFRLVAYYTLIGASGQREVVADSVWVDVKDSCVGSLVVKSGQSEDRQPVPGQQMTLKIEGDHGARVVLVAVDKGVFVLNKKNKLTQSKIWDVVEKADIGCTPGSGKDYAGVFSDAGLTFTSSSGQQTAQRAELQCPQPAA
T1 sequence (P01024 749-1663 limits assumed, chain 2 of 2): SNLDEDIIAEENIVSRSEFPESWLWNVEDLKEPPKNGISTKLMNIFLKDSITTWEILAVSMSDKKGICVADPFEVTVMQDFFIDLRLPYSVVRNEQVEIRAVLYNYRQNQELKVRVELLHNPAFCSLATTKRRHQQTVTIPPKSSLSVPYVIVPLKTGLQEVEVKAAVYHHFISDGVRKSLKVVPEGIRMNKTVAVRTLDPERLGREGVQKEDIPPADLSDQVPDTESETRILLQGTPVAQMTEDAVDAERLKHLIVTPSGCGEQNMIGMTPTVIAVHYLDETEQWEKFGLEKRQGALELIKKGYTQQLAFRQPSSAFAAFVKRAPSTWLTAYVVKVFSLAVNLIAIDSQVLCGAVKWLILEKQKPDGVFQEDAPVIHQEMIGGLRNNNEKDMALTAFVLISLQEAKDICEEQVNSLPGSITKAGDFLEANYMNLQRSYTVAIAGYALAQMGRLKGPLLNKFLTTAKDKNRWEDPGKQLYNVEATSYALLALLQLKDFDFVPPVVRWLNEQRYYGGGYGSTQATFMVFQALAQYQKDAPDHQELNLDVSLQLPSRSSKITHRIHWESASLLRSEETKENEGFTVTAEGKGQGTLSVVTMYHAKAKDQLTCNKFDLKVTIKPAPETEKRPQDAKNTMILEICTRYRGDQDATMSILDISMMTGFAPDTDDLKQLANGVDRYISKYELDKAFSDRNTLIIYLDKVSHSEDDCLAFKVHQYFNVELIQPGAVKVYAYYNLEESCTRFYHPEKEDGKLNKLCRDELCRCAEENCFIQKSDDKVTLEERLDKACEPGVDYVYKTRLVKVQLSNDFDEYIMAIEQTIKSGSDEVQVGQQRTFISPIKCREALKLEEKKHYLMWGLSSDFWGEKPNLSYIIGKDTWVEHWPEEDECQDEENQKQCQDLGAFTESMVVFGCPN

With B1, the Kd in assay [1] came out at 550 nM; in assay [2] it was 490 nM.

B2: Plasma CFH:PspCN complex (other)
chain 1: EDCNELPPRRNTEILTGSWSDQTYPEGTQAIYKCRPGYRSLGNVIMVCRKGEWVALNPLRKCQKRPCGHPGDTPFGTFTLTGGNVFEYGVKAVYTCNEGYQLLGEINYRECDTDGWTNDIPICEVVKCLPVTAPENGKIVSSAMEPDREYHFGQAVRFVCNSGYKIEGDEEMHCSDDGFWSKEKPKCVEISCKSPDVINGSPISQKIIYKENERFQYKCNMGYEYSERGDAVCTESGWRPLPSCEEKSCDNPYIPNGDYSPLRIKHRTGDEITYQCRNGFYPATRGNTAKCTSTGWIPAPRCTLKPCDYPDIKHGGLYHENMRRPYFPVAVGKYYSYYCDEHFETPSGSYWDHIHCTQDGWSPAVPCLRKCYFPYLENGYNQNYGRKFVQGKSIDVACHPGYALPKAQTTVTCMENGWSPTPRCIRVKTCSKSSIDIENGFISESQYTYALKEKAKYQCKLGYVTADGETSGSITCGKDGWSAQPTCIKSCDIPVFMNARTKNDFTWFKLNDTLDYECHDGYESNTGSTTGSIVCGYNGWSDLPICYERECELPKIDVHLVPDRKKDQYKVGEVLKFSCKPGFTIVGPNSVQCYHFGLSPDLPICKEQVQSCGPPPELLNGNVKEKTKEEYGHSEVVEYYCNPRFLMKGPNKIQCVDGEWTTLPVCIVEESTCGDIPELEHGWAQLSSPPYYYGDSVEFNCSESFTMIGHRSITCIHGVWTQLPQCVAIDKLKKCKSSNLIILEEHLKNKKEFDHNSNIRYRCRGKEGWIHTVCINGRWDPEVNCSMAQIQLCPPPPQIPNSHNMTTTLNYRDGEKVSVLCQENYLIQEGEEITCKDGRWQSIPLCVEKIPCSQPPQIEHGTINSSRSSQESYAHGTKLSYTCEGGFRISEENETTCYMGKWSSPPQCEGLPCKSPPEISHGVVAHMSDSYQYGEEVTYKCFEGFGIDGPAIAKCLGEKWSHPPSCIKTDCLSLPSFENAIPMGEKKDVYKAGEQVTYTCATYYKMDGASNVTCINSRWTGRPTCRDTSCVNPPTVQNAYIVSRQMSKYPSGERVRYQCRSPYEMFGDEEVMCLNGNWTEPPQCKDSTGKCGPPPPIDNGDITSFPLSVYAPASSVEYQCQNLYQLEGNKRITCRNGQWSEPPKCLHPCVISREIMENYNIALRWTAKQKLYSRTGESVEFVCKRGYRLSSRSHTLRTTCWDGKLEYPTCAKR
chain 2: ATENEGSTQAATSSNMAKTEHRKAAKQVVDEYIEKMLREIQLDRRKHTQNVALNIKLSAIKTKYLRELNVLEEKSKDELPSEIKAKLDAAFEKFKKDTLKPGEK
notes: also called PspCN:CFH
B2: in assay [3], the “fold difference in affinity against CFH” value amounted to 4 fold. For the same molecule, in assay [4], the “fold better binding than intact CFH” value is above 50 fold. For the same molecule, the “fold better binding than CFH alone” value in assay [5] came out at 3 fold. This molecule also had a Kd in assay [2] of 160 nM.

B3: His-SUMO-PspCN-Cys (other)
chain: ATENEGSTQAATSSNMAKTEHRKAAKQVVDEYIEKMLREIQLDRRKHTQNVALNIKLSAIKTKYLRELNVLEEKSKDELPSEIKAKLDAAFEKFKKDTLKPGEKGSGSGSGSGGC
notes: also called PspCN-Cys (as SPR ligand); not shown: N-terminal His-SUMO tag
Turning to B3, the Kd in assay [6] is around 0.1 pM.

B4: PspCN (TIGR4 37-179), fragment of PspC (CbpA) of S. pneumoniae strain TIGR4 (other)
chain: ATENEGATQVPTSSNRANESQAEQGEQPKKLDSERDKARKEVEEYVKKIVGESYAKSTKKRHTITVALVNELNNIKNEYLNKIVESTSESQLQILMMESRSKVDEAVSKFEKDSSSSSSSDSSTKPEASDTAKPNKPTEPGEK
notes: not shown: N-terminal hexaHis-SUMO tag used for capture on the NTA chip
B4: the Kd in assay [7] is below 0.01 nM.

B5: His-SUMO-Cys-PspCN (other)
chain: CGSGSGSGSGGATENEGSTQAATSSNMAKTEHRKAAKQVVDEYIEKMLREIQLDRRKHTQNVALNIKLSAIKTKYLRELNVLEEKSKDELPSEIKAKLDAAFEKFKKDTLKPGEK
notes: also called Cys-PspCN (as SPR ligand); not shown: N-terminal His-SUMO tag
In turn, B5 had a dissociation constant Kd in assay [8] of around 0.1 pM.

A word on the Kd: it is the equilibrium constant for the complex coming apart.
